Experimental findings from patent US11982671B2, “Identification of a T cell epitope of Prevotella copri that induces T cell responses in patients with rheumatoid arthritis” (priority 2016, dated 2024) are described below.

The test relates to serum IgG and IgA antibodies. Description: ELISA for serum IgG and IgA antibodies to the P. copri protein (Pc-p27). Type of test: binding, human. As for the experimental part:
ELISA for serum IgG and IgA antibodies to the P. copri protein (Pc-p27). ELISA plates were coated with 0.25 μg/ml of the P. copri protein Pc-p27 (GenScript USA Inc, Piscataway, N.J.) overnight at 4° C. Subsequent incubations and washes were performed at room temperature. After washing with phosphate buffered saline with 0.05% Tween-20 (PBST), the plates were incubated with blocking buffer (5% nonfat dry milk in PBST) for one hour. Afterwards, 100 μl of each patient's serum sample (diluted 200-fold) was added in duplicate wells for 1.5 hours, followed by horseradish-peroxidase (HRP)-conjugated goat anti-human IgG (sc-2453, Santa Cruz Biotech) or HRP-conjugated goat anti-human IgA (Bio-Rad, Hercules, Calif.) and then TMB substrate (BD, San Diego, Calif.). For inter-plate standardization, 2 control samples were included on each plate.
For orientation: An ELISA detects its analyte on a solid surface through an enzyme-linked reagent.

B1: Pc-p27: full length 27-kD protein of P. copri, recombinant (GenScript) (protein, listed as Prevotella copri)
chain: MKRIILILTVLLAMLGQVAYAQKTCVIASAENHVPIREALIHTNNNHWARTDYRGYWTMRYQFDSATVSKPGFMKATIRYKELPDTLFLLPDAKQLGEVTVWGKNQEGIKNMEEDIQEKINSLPTSSTGIGFDAFGWMDKQGKRDKKHLQQAKKVFEKMEHKDPVVAAYEKATGKKYELTNPYDVSAFKKDPPSEMATEEKKATSDAESKSKKKENPEKYAQE
On to B1, for which the “patients with positive IgG antibody responses” value (49 CRA patients) is 20%. For the same molecule, for the setting “78 NORA patients, serum diluted 200-fold”, the “patients with IgG antibody responses >3 SD above HC” value turned out to be 13%. For the same molecule, under “127 RA patients”, the “patients with IgG or IgA antibody responses” value was determined as 24%. For the same molecule, the “patients with IgA antibody responses” value (both the NORA and CRA groups) is on record as “About 10%”.
